Measurements taken from article PMC4372114.
Where “and” joins values, the source holds several entries; their conditions need not be identical. Identical values can stand only once.

Target: Recombinant human vascular endothelial growth factor receptor (VEGFR) (human) (UniProt P35968)
Assay: SPR

Sequence of UniProt P35968 (P35968 20-764): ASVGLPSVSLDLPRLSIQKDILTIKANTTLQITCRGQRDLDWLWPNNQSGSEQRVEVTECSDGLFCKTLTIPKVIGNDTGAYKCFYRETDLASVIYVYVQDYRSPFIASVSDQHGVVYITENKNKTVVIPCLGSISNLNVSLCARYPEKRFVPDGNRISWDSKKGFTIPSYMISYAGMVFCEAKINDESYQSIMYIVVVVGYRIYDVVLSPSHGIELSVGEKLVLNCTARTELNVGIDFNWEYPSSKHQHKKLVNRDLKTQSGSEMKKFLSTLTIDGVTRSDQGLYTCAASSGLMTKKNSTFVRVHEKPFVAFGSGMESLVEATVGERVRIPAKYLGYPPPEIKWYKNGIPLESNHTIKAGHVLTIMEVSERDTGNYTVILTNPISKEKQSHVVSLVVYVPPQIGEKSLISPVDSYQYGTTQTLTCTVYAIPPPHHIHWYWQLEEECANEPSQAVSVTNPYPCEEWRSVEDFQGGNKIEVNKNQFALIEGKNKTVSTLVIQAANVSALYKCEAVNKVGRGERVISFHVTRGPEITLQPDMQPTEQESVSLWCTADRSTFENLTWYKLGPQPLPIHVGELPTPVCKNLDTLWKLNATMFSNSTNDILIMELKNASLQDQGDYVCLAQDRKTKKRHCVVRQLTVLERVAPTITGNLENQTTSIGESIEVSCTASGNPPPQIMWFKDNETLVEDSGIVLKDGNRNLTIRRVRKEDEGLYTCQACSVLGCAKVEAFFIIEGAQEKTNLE

| Substance | SPR baseline shift | kon |
| --- | --- | --- |
| VEGF released from living SKOV-3 cells (from UniProt P15692 1-395) (ligand) | 104 mDeg and 106 mDeg and 113 mDeg | – |
| Recombinant human vascular endothelial growth factor (VEGF) (from UniProt P15692 1-395) (ligand) | 60.2 mDeg and 69.3 mDeg and 57.4 mDeg | 83000 M⁻¹ s⁻¹ and 91000 M⁻¹ s⁻¹ and 82000 M⁻¹ s⁻¹ |
